No end group written: not given here.
Legend:
RILPL2 (Mus musculus) = RILPL2 (Mus musculus) (UniProt Q99LE1); details: cited from earlier work
[1] = molecular target: the molecule itself; assay: crystal structure; pRab8(Q67L):His6-RL2 complex, 1:1 molar ratio of protein:peptide, 12 mg/mL; 100 mM HEPES pH 7, 10% PEG4,000, 10% 2-propanol; 1.8 Å
[2] = molecular target: T72 phosphorylated Rab8a(GTP), residues 1-181, Q67L (UniProt P61006); assay: ITC; His6-RILPL2 129-165 (400-600 μM) injected into Rab8a or pRab8a 1-181 (40-60 μM); 10 mM Tris-HCl, 300 mM NaCl, 5 mM MgCl2, 20 mM imidazole, 1 mM DTT; triplicate
Sequence of T72 phosphorylated Rab8a(GTP), residues 1-181, Q67L (P61006 1-181 Q67L): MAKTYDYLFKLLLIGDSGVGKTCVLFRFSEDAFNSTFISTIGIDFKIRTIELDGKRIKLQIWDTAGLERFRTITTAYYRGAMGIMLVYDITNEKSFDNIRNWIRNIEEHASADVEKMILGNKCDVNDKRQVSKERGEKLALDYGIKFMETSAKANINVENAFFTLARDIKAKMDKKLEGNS

[3] = molecular target: the molecule itself; assay: SEC-MALS; static light scattering coupled to gel filtration, Superdex 200 (10/300); full-length RILPL2 with uncleaved polyhistidine tag, 500 μL at 1 mg/mL
[4] = molecular target: T1, His6-tagged RILPL2 (full length, 1-211) (Homo sapiens (Human), UniProt Q969X0); assay: Ni-agarose pull-down (SDS-PAGE, Coomassie)
T1 chain: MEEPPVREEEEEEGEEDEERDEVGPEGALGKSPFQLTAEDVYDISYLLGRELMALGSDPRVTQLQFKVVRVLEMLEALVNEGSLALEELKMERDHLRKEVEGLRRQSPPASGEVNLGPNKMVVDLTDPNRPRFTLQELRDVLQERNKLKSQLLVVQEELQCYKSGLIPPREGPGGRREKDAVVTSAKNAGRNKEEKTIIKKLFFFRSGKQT

Sequence of RILPL2 (Mus musculus) (Q99LE1 whole entry): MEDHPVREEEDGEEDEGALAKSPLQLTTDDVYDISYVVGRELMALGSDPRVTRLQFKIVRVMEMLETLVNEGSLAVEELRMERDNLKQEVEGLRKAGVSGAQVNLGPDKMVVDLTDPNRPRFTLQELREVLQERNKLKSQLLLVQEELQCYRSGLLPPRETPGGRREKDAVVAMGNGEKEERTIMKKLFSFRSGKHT

Molecule: Myosin Va (from UniProt Q99104)
- Kd (RILPL2 (Mus musculus)): 300 nM

B1: His6-RILPL2 residues 129-165 (phospho-Rab binding domain, minimal RH2 motif) (peptide, UniProt Q969X0 129-165, looked up)
chain: His6-NRPRFTLQELRDVLQERNKLKSQLLVVQEELQCYKSG
notes: Parallel α-helical dimer in the crystal; also called His6-RL2; source: synthetic peptide (Genscript); not shown: His6, N-terminal, kept
- stoichiometry N [1]: 2
- Kd [2]: 3300 nM

B2: His6-tagged RILPL2 (full length, 1-211) (natural protein, human, UniProt Q969X0 1-211, looked up)
chain: MEEPPVREEEEEEGEEDEERDEVGPEGALGKSPFQLTAEDVYDISYLLGRELMALGSDPRVTQLQFKVVRVLEMLEALVNEGSLALEELKMERDHLRKEVEGLRRQSPPASGEVNLGPNKMVVDLTDPNRPRFTLQELRDVLQERNKLKSQLLVVQEELQCYKSGLIPPREGPGGRREKDAVVTSAKNAGRNKEEKTIIKKLFFFRSGKQT
notes: RILPL2, human, full length (1-211), cDNA in pET15b; Dimer in solution by static light scattering coupled to gel filtration; also called full-length RILPL2; source: E. coli, purified (Ni-agarose, gel filtration), polyhistidine tag not removed
- stoichiometry N [3]: 2

B3: globular tail domain (GTD) of myosin Va (1462-1853) (protein)
chain: VNIPRKEKDFQGMLEYKREDEQKLVKNLILELKPRGVAVNLIPGLPAYILFMCVRHADYLNDDQKVRSLLTSTINSIKKVLKKRGDDFETVSFWLSNTCRFLHCLKQYSGEEGFMKHNTSRQNEHCLTNFDLAEYRQVLSDLAIQIYQQLVRVLENILQPMIVSGMLEHETIQGVSGVKPTGLRKRTSSIADEGTYTLDSILRQLNSFHSVMCQHGMDPELIKQVVKQMFYIVGAITLNNLLLRKDMCSWSKGMQIRYNVSQLEEWLRDKNLMNSGAKETLEPLIQAAQLLQVKKKTDDDAEAICSMCNALTTAQIVKVLNLYTPVNEFEERVSVSFIRTIQMRLRDRKDSPQLLMDAKHIFPVTFPFNPSSLALETIQIPASLGLGFIARV
- binding result [4]: binds

— publication PMC7139218, “Structural Basis for Rab8a Recruitment of RILPL2 via LRRK2 Phosphorylation of Switch 2” (Structure(London, England:1993), 2020)
